The record followed here is article PMC3409205, “Crystal Structure of TNF-α-Inducing Protein from Helicobacter Pylori in Active Form Reveals the Intrinsic Molecular Flexibility for Unique DNA-Binding” (PLoS ONE, 2012).

Data set [1] concerns the target T1, TipαN25 H60A (Helicobacter pylori 26695, UniProt O25318 25-192, H60A). Kind of data set: SPR; pH 7.0; ka 2.9 M-1 s-1, kd 1.75E-04 s-1; ITC: 50 mM citric acid/Na citrate pH 5.0, 150 mM NaCl, 25 °C; SPR: 50 mM Hepes pH 7.0, 150 mM NaCl, 0.005% Tween20, 25 °C. The settings on record: protein: recombinant; tags: C-terminal LE-6xHis; chain copies: 2; label: 5' biotin; called ssDNA by authors; self-complementary repeat. For orientation: SPR reads the build-up and loss of mass on a sensor chip optically.

Data set [2] has as its target T2, TipαN25 (wild type) (Helicobacter pylori 26695, UniProt O25318 25-192). Kind of data set: ITC; pH 5.0; n=1.47; ITC: 50 mM citric acid/Na citrate pH 5.0, 150 mM NaCl, 25 °C; SPR: 50 mM Hepes pH 7.0, 150 mM NaCl, 0.005% Tween20, 25 °C. Conditions: protein: recombinant; tags: C-terminal LE-6xHis; chain copies: 2; called ssDNA by authors; self-complementary repeat. In general terms: Isothermal titration calorimetry measures the heat released or taken up as one component is titrated into another.

Data set [3] concerns the molecule itself. Kind of data set: SEC; analytical gel filtration, Superdex 75 10/300 GL, no reducing agent, pH 4.0 and pH 7.0, dimeric protein concentration 2 mg/ml (also 0.05 and 0.25 mg/ml, Fig. S1).
Data set [4] concerns the target T2, TipαN25 (wild type). Kind of data set: ITC; pH 5.0; n=1.17; ITC: 50 mM citric acid/Na citrate pH 5.0, 150 mM NaCl, 25 °C; SPR: 50 mM Hepes pH 7.0, 150 mM NaCl, 0.005% Tween20, 25 °C. Conditions: protein: recombinant; tags: C-terminal LE-6xHis; chain copies: 2; called ssDNA by authors; self-complementary repeat.
In data set [5] the target is T2, TipαN25 (wild type). Description: ITC; pH 5.0; n about 1; ITC: 50 mM citric acid/Na citrate pH 5.0, 150 mM NaCl, 25 °C; SPR: 50 mM Hepes pH 7.0, 150 mM NaCl, 0.005% Tween20, 25 °C. Conditions: protein: recombinant; tags: C-terminal LE-6xHis; chain copies: 2.
Another data set concerns the target TipαN25 R77A/R81A (Helicobacter pylori 26695, UniProt O25318 25-192, R77A;R81A). Description: ITC; pH 5.0; n=0.491; ITC: 50 mM citric acid/Na citrate pH 5.0, 150 mM NaCl, 25 °C; SPR: 50 mM Hepes pH 7.0, 150 mM NaCl, 0.005% Tween20, 25 °C. Conditions: protein: recombinant; tags: C-terminal LE-6xHis; chain copies: 2; called ssDNA by authors; self-complementary repeat.

Another data set addresses TipαN25 K65A/K66A (Helicobacter pylori 26695, UniProt O25318 25-192, K65A;K66A). Description: ITC; pH 5.0; n=0.921; ITC: 50 mM citric acid/Na citrate pH 5.0, 150 mM NaCl, 25 °C; SPR: 50 mM Hepes pH 7.0, 150 mM NaCl, 0.005% Tween20, 25 °C. The settings on record: protein: recombinant; tags: C-terminal LE-6xHis; chain copies: 2; called ssDNA by authors; self-complementary repeat.

Data set [6] deals with T2, TipαN25 (wild type). Description: ITC; pH 5.0; n=0.925 dimer per DNA; ITC: 50 mM citric acid/Na citrate pH 5.0, 150 mM NaCl, 25 °C; SPR: 50 mM Hepes pH 7.0, 150 mM NaCl, 0.005% Tween20, 25 °C. The settings on record: protein: recombinant; tags: C-terminal LE-6xHis; chain copies: 2; called ssDNA by authors; self-complementary repeat.
A further data set addresses TipαN25 K104A (Helicobacter pylori 26695, UniProt O25318 25-192, K104A). Description: ITC; pH 5.0; n=0.87; ITC: 50 mM citric acid/Na citrate pH 5.0, 150 mM NaCl, 25 °C; SPR: 50 mM Hepes pH 7.0, 150 mM NaCl, 0.005% Tween20, 25 °C. Conditions: protein: recombinant; tags: C-terminal LE-6xHis; chain copies: 2; called ssDNA by authors; self-complementary repeat.
Data set [7] addresses T1, TipαN25 H60A. Kind of data set: ITC; pH 5.0; n=0.5; ITC: 50 mM citric acid/Na citrate pH 5.0, 150 mM NaCl, 25 °C; SPR: 50 mM Hepes pH 7.0, 150 mM NaCl, 0.005% Tween20, 25 °C. Conditions: protein: recombinant; tags: C-terminal LE-6xHis; chain copies: 2; called ssDNA by authors; self-complementary repeat.
The next data set addresses TipαN25 R77A (Helicobacter pylori 26695, UniProt O25318 25-192, R77A). Kind of data set: ITC; pH 5.0; n=0.477; ITC: 50 mM citric acid/Na citrate pH 5.0, 150 mM NaCl, 25 °C; SPR: 50 mM Hepes pH 7.0, 150 mM NaCl, 0.005% Tween20, 25 °C. Conditions: protein: recombinant; tags: C-terminal LE-6xHis; chain copies: 2; called ssDNA by authors; self-complementary repeat.

The Kd is the equilibrium constant for the complex coming apart. For the molecule GCGCGCGCGCGCGCGCGCGC (ssDNA) [5'-biotin (dGdC)10, 20 nt], the Kd in the data set with TipαN25 H60A [1] came to 60.3 µM.

B1: (dGdC)30, 60 nt (ssDNA)
DNA: GCGCGCGCGCGCGCGCGCGCGCGCGCGCGCGCGCGCGCGCGCGCGCGCGCGCGCGCGCGC
In the case of B1, in the data set with TipαN25 (wild type) [2], the Ka was found to be 1.03e+06 M⁻¹.

B2: TipαN^25 (N-terminal-truncated TNF-α-inducing protein Tipα starting from residue Cys25) (domain or fragment)
chain: CTCPNTSQRNSFLQDVPYWMLQNRSEYITQGVDSSHIVDGKKTEEIEKIATKRATIRVAQNIVHKLKEAYLSKTNRIKQKITNEMFIQMTQPIYDSLMNVDRLGIYINPNNEEVFALVRARGFDKDALSEGLHKMSLDNQAVSILVAKVEEIFKDSVNYGDVKVPIAM
notes: Tipα (TNF-α-inducing protein), Helicobacter pylori strain 26695, gene 0596, 192 amino acids; residues 25-192 (Δ1–24), amplified from genomic DNA into pET22b(+); The entry is the single chain (protomer); A SeMet form (E. coli B834) was used only for phasing; also called Tipα (Δ1–24); native TipαN^25; source: E. coli BL21 (DE3), purified (Ni-NTA, Hitrap SP cation exchange, Superdex 75)
One may read the stoichiometry N as the number of molecules, sites or subunits per partner or assembly. In the case of B2, the “stoichiometry N” value in data set [3] amounted to 2.
Take GCGCGCGCGCGCGCGCGCGCGCGCGCGCGCGCGCGCGCGC (ssDNA) [(dGdC)20, 40 nt]: in the data set with TipαN25 (wild type) [4], the Ka is 937000 M⁻¹.

B3: 20 bp dsDNA (dsDNA)
DNA 1: GCCTTGCCGCCGCCCTTGCC
DNA 2: GGCAAGGGCGGCGGCAAGGC
For the molecule B3, in the data set with TipαN25 (wild type) [5], the Ka stood at 1.02e+06 M⁻¹.
For the molecule GCGCGCGCGCGCGCGCGCGC (ssDNA) [(dGdC)10, 20 nt], the Ka in the data set with TipαN25 R77A/R81A is 140000 M⁻¹; with TipαN25 K65A/K66A, 261000 M⁻¹; with TipαN25 (wild type) [6], 1.04e+06 M⁻¹; in the data set with TipαN25 K104A, 631000 M⁻¹; with TipαN25 H60A [7], 28200 M⁻¹; with TipαN25 R77A it was 479000 M⁻¹.
